Where two headings read alike, the source gives them in different places.
Legend:
Assay in all cases: BLI
[1] = target: COP-1, synthetic antibody fragment (sFab), with C-terminal histidine tag
[2] = target: COP-1, synthetic antibody fragment (sFab), with C-terminal histidine tag; remark: listed apart in the source
[3] = target: human claudin-18 splice variant 18.1 (human, UniProt P56856)
[4] = target: human claudin-18 splice variant 18.2 (human, UniProt P56856-2)
[5] = target: human claudin-19 (human, UniProt Q8N6F1)
Sequence of human claudin-19 (Q8N6F1 whole entry): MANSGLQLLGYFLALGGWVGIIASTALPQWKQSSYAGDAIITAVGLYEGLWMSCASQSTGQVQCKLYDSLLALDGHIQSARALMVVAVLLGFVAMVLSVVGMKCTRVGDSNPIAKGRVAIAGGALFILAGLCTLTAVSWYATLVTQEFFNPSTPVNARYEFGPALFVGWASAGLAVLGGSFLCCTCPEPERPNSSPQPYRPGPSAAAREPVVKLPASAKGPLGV

[6] = target: murine claudin-15 (mouse, UniProt Q9Z0S5)
Sequence of murine claudin-15 (Q9Z0S5 whole entry, the tested form may be a part): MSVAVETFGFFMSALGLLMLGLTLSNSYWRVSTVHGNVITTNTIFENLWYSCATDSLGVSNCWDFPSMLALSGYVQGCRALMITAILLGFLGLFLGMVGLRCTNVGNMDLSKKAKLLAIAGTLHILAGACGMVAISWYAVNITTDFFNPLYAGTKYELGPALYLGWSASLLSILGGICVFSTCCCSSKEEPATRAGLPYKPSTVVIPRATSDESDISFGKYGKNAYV

[7] = target: C-terminal domain of Clostridium perfringens enterotoxin, in solution (Clostridium perfringens, UniProt P01558)
Sequence of C-terminal domain of Clostridium perfringens enterotoxin, in solution (P01558 198-319): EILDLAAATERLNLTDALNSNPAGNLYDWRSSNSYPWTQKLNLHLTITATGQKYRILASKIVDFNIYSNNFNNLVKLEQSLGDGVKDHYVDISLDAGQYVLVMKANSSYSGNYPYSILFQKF

[8] = target: human occludin (Homo sapiens, UniProt Q16625)
[9] = target: human junctional adhesion molecule-A (Homo sapiens, UniProt Q9Y624)
[10] = target: human claudin-1 (human, UniProt O95832)
Sequence of human claudin-1 (O95832 whole entry): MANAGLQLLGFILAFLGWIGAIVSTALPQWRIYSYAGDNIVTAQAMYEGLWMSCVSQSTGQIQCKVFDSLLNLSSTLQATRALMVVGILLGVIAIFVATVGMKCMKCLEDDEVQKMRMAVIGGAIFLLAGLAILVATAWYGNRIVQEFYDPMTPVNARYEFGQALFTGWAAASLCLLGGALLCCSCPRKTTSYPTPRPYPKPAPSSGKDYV

[11] = target: human claudin-3 (human, UniProt O15551)
Sequence of human claudin-3 (O15551 whole entry): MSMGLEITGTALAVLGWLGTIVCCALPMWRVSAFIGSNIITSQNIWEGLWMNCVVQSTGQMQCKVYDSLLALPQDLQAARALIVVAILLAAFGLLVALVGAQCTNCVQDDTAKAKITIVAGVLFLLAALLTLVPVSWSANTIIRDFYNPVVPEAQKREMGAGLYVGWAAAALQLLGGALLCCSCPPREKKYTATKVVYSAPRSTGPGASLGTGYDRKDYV

[12] = target: human claudin-5 (human, UniProt O00501)
Sequence of human claudin-5 (O00501 whole entry): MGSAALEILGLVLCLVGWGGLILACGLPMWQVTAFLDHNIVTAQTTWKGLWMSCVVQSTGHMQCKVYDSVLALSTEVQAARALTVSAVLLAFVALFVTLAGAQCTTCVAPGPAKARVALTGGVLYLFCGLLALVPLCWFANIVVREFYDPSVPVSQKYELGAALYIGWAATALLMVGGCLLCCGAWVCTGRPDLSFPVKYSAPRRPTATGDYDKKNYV

[13] = target: human claudin-6 (human, UniProt P56747)
Sequence of human claudin-6 (P56747 whole entry): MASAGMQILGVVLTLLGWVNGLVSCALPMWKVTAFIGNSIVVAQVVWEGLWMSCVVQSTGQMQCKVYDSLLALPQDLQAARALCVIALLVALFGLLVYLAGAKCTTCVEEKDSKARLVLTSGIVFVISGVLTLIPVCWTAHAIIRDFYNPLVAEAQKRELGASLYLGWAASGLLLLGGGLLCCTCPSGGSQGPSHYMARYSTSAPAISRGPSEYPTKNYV

[14] = target: human claudin-9 (human, UniProt O95484)
Sequence of human claudin-9 (O95484 whole entry): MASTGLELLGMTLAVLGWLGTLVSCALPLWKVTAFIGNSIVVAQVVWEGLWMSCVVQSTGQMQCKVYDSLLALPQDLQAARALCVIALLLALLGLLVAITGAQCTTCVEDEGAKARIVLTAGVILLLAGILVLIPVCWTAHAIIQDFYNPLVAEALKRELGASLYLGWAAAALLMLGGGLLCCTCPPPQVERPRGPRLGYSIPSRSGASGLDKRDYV

[15] = target: human claudin-17 (human, UniProt P56750)
Sequence of human claudin-17 (P56750 whole entry): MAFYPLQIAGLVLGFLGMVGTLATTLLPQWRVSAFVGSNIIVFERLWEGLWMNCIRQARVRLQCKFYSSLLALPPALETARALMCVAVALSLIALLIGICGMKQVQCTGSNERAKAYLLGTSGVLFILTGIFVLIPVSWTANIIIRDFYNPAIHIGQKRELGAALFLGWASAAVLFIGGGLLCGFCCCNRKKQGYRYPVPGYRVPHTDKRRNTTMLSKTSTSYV

Sequence of human claudin-4 (O14493 whole entry): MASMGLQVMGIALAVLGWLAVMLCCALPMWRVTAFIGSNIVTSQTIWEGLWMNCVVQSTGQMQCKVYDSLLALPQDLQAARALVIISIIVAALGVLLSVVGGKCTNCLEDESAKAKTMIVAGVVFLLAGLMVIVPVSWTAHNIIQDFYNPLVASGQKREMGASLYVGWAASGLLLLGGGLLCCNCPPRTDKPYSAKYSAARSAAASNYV

| Molecule | Kd [1] [nM] | Kd [2] [nM] | t1/2 of the complex [2] [min] | Kd [3] [nM] | Kd [4] [nM] | Kd [5] [nM] | Kd [6] [nM] | binding result [7] | binding result [8] | binding result [9] | Kd [10] [nM] | Kd [11] [nM] | Kd [12] [nM] | Kd [13] [nM] | Kd [14] [nM] | Kd [15] [nM] |
| --- | --- | --- | --- | --- | --- | --- | --- | --- | --- | --- | --- | --- | --- | --- | --- | --- |
| human claudin-4 (from UniProt O14493) (natural protein) | 70.6 | 106 | 30 | – | – | – | – | – | – | – | – | – | – | – | – | – |
| COP-1, synthetic antibody fragment (sFab), with C-terminal histidine tag (Fab, V domains shown) VH: EVQLVESGGGLVQPGGSLRLSCAASGFNFSSSYIHWVRQAPGKGLEWVASISSSSGSTSYADSVKGRFTISADTSKNTAYLQMNSLRAEDTAVYYCARWFHPWWWWEYLFRGAIDYWGQGTLVTVSS VL: DIQMTQSPSSLSASVGDRVTITCRASQSVSSAVAWYQQKPGKAPKLLIYSASSLYSGVPSRFSGSRSGTDFTLTISSLQPEDFATYYCQQSSSSLITFGQGTKVEIK | – | – | – | 92.4 | 66.4 | 62.2 | 59 | no binding | no binding (tested: 500 nM) | no binding (tested: 500 nM) | 61.3 | 57.9 | 75.8 | 59.5 | 66 | 80.2 |

— publication doi:10.1101/2024.11.10.622873 (bioRxiv, 2024)
